Paper PMC9757750 (Science Advances, 2022)

Key:
[1] = target: Flag-LegA15 used in the GST pulldown of Fig. 2E (Legionella pneumophila Philadelphia, UniProt Q5ZSR1); test: pull-down; details: both partners purified
[2] = target: 6×His-LegA15, full-length (Legionella pneumophila Philadelphia, UniProt Q5ZSR1 1-471); test: pull-down; details: both partners purified

B1: GST-p115 (1 to 651), ND (domain or fragment, human, UniProt O60763 1-651, looked up)
chain: MNFLRGVMGGQSAGPQHTEAETIQKLCDRVASSTLLDDRRNAVRALKSLSKKYRLEVGIQAMEHLIHVLQTDRSDSEIIGYALDTLYNIISNEEEEEVEENSTRQSEDLGSQFTEIFIKQQENVTLLLSLLEEFDFHVRWPGVKLLTSLLKQLGPQVQQIILVSPMGVSRLMDLLADSREVIRNDGVLLLQALTRSNGAIQKIVAFENAFERLLDIISEEGNSDGGIVVEDCLILLQNLLKNNNSNQNFFKEGSYIQRMKPWFEVGDENSGWSAQKVTNLHLMLQLVRVLVSPTNPPGATSSCQKAMFQCGLLQQLCTILMATGVPADILTETINTVSEVIRGCQVNQDYFASVNAPSNPPRPAIVVLLMSMVNERQPFVLRCAVLYCFQCFLYKNQKGQGEIVSTLLPSTIDATGNSVSAGQLLCGGLFSTDSLSNWCAAVALAHALQENATQKEQLLRVQLATSIGNPPVSLLQQCTNILSQGSKIQTRVGLLMLLCTWLSNCPIAVTHFLHNSANVPFLTGQIAENLGEEEQLVQGLCALLLGISIYFNDNSLESYMKEKLKQLIEKRIGKENFIEKLGFISKHELYSRASQKPQPNFPSPEYMIFDHEFTKLVKELEGVITKAIYKSSEEDKKEEEVKKTLEQHDNI
notes: also called N-terminal ARM domain; globular head
B1: binds [1]; binds [2].
